Assay results taken from patent USRE44022 (COMMISSARIAT A L ENERGIE ATOMIQUE, dated 2013).
Square brackets hold non-standard residues; d marks the D form.

B1: P11 (peptide)
peptide: cyclo([dF]PQIMRIKPHQGQHIGE)
SMILES: CC[C@H](C)[C@@H]1NC(=O)[C@H](Cc2c[nH]cn2)NC(=O)[C@H](CCC(N)=O)NC(=O)CNC(=O)[C@H](CCC(N)=O)NC(=O)[C@H](Cc2c[nH]cn2)NC(=O)[C@@H]2CCCN2C(=O)[C@H](CCCCN)NC(=O)[C@H]([C@@H](C)CC)NC(=O)[C@H](CCCNC(=N)N)NC(=O)[C@H](CCSC)NC(=O)[C@H]([C@@H](C)CC)NC(=O)[C@H](CCC(N)=O)NC(=O)[C@@H]2CCCN2C(=O)[C@@H](Cc2ccccc2)NC(=O)[C@H](CCC(=O)O)NC(=O)CNC1=O
notes: Cyclopeptide; 6); also called P11 (cyclic) peptide
B2: P16 (peptide)
peptide: RIKPHQG
modifications: cyclic (cyclo, ends of the linear peptide coupled)
notes: Cyclopeptide; also called cyclo(Arg-Ile-Lys-Pro-His-Gln-Gly)
B3: P20 (peptide)
peptide: cyclo([dF]PQIMRIKPHQGQHIG)
SMILES: CC[C@H](C)[C@@H]1NC(=O)[C@H](Cc2c[nH]cn2)NC(=O)[C@H](CCC(N)=O)NC(=O)CNC(=O)[C@H](CCC(N)=O)NC(=O)[C@H](Cc2c[nH]cn2)NC(=O)[C@@H]2CCCN2C(=O)[C@H](CCCCN)NC(=O)[C@H]([C@@H](C)CC)NC(=O)[C@H](CCCNC(=N)N)NC(=O)[C@H](CCSC)NC(=O)[C@H]([C@@H](C)CC)NC(=O)[C@H](CCC(N)=O)NC(=O)[C@@H]2CCCN2C(=O)[C@@H](Cc2ccccc2)NC(=O)CNC1=O
notes: Cyclopeptide
B4: P21 (peptide)
peptide: cyclo([dF]PIMRIKPHQGQHI)
SMILES: CC[C@H](C)[C@@H]1NC(=O)[C@H](CCCNC(=N)N)NC(=O)[C@H](CCSC)NC(=O)[C@H]([C@@H](C)CC)NC(=O)[C@@H]2CCCN2C(=O)[C@@H](Cc2ccccc2)NC(=O)[C@H]([C@@H](C)CC)NC(=O)[C@H](Cc2c[nH]cn2)NC(=O)[C@H](CCC(N)=O)NC(=O)CNC(=O)[C@H](CCC(N)=O)NC(=O)[C@H](Cc2c[nH]cn2)NC(=O)[C@@H]2CCCN2C(=O)[C@H](CCCCN)NC1=O
notes: Cyclopeptide
B5: P24 (peptide)
peptide: GRIKPH
modifications: cyclic (cyclo, ends of the linear peptide coupled)
notes: Cyclopeptide; also called cyclo(Gly-Arg-Ile-Lys-Pro-His)
B6: P23 (peptide)
peptide: cyclo([dY]PRIKPHQ)
SMILES: CC[C@H](C)[C@@H]1NC(=O)[C@H](CCCNC(=N)N)NC(=O)[C@@H]2CCCN2C(=O)[C@@H](Cc2ccc(O)cc2)NC(=O)[C@H](CCC(N)=O)NC(=O)[C@H](Cc2c[nH]cn2)NC(=O)[C@@H]2CCCN2C(=O)[C@H](CCCCN)NC1=O

target: T1, KDR receptor (VEGFR-2) (UniProt P35968 20-1356, limits assumed); experiment: displacement of 125I-VEGF from CHOm VEGFR2 cells
T1 construct: whole, on cells; also called kinase domain receptor; VEGF receptor
T1 sequence (P35968 20-1356 limits assumed): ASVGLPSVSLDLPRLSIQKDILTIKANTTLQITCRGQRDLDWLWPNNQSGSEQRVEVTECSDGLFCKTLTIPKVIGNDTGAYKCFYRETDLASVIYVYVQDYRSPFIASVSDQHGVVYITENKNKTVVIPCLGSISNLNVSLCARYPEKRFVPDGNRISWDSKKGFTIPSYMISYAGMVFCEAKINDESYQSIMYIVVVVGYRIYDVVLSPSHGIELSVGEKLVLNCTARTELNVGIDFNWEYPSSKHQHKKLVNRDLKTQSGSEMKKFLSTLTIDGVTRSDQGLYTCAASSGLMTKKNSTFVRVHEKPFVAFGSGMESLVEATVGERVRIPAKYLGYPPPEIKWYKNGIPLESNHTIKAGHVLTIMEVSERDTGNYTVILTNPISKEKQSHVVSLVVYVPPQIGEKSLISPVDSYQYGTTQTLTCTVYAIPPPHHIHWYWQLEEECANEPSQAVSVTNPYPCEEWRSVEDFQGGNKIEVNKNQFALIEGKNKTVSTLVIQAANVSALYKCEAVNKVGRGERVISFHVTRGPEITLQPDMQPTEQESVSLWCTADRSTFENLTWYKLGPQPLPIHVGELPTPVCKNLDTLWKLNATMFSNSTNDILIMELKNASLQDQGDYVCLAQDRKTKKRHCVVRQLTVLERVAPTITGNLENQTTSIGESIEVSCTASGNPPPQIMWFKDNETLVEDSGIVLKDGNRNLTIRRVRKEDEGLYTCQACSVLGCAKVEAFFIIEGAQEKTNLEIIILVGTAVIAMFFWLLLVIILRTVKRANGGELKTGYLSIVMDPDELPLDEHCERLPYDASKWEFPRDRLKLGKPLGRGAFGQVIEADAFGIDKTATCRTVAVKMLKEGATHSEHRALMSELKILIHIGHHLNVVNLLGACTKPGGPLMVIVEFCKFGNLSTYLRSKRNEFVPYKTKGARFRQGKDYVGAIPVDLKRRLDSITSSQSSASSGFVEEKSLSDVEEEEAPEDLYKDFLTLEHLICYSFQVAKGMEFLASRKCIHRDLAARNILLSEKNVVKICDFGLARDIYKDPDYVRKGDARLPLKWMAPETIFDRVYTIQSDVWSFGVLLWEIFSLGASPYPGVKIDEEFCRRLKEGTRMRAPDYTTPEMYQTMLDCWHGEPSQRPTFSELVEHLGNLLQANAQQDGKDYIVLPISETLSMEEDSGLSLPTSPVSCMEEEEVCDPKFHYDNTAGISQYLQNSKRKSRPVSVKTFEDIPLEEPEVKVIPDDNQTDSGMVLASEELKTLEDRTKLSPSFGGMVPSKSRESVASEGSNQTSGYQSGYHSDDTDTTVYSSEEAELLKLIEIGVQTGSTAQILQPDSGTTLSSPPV

Binder	IC50 [µM]
B1	2
PRIKPHQGQH (cyclic (cyclo, ends of the linear peptide coupled), Cyclopeptide) [P9]	300
GQIMRIKPHQGQHIGE (cyclic (cyclo, ends of the linear peptide coupled), Cyclopeptide) [P12]	300
B2	32
PRIKPHQG (cyclic (cyclo, ends of the linear peptide coupled), Cyclopeptide) [P17]	10
QIMRIKPHQGQHIGE (cyclic (cyclo, cyclised on the solid phase, method B), Cyclopeptide) [P19]	5
B3	10
B4	200
B5	8
GRIKPHQGH (cyclic (cyclo, ends of the linear peptide coupled), Cyclopeptide) [P8]	200

target: T1, KDR receptor (VEGFR-2); experiment: cell-based or functional assay

Binder	Migration (IC50) [µM]	Proliferation (IC50) [µM]
B1	30	7

target: KDR receptor (VEGFR-2) (UniProt P35968); experiment: displacement of 125I-VEGF from CHOm VEGFR2 cells
Sequence (P35968 20-1356 limits assumed): as above

Binder	IC50 [µM]
B6	8
